Assay results published in PMC4963197 (2016).
Square brackets hold non-standard residues; d marks the D form. Ends that are not written are not given here. pS = N[C@@H](COP(=O)(O)O)C(=O)O

Assays:
G-actin [1] = target: T1, G-actin (UniProt P68135 1-377); assay: FP; LatB-actin
G-actin [2] = target: T1, G-actin; assay: FP; LatB-actin; phospho-S98

A Kd (G-actin [1]) of 1120 nM was found for {FAM}-LSERKNVLQLKLQQRRTREELVSQGIMPPLKS [FAM-MRTF-A(67–98)] in this work.

A Kd (G-actin [2]) of 630 nM was found for {FAM}-LSERKNVLQLKLQQRRTREELVSQGIMPPLK[pS] [FAM-MRTF-A(67–98) phosphorylated at S98] in this work.

A Kd (G-actin [1]) of 930 nM was found for {FAM}-PNLPPLSERKNVLQLKLQQRRTREELVSQGIMPPLKDPAAFHE [FAM-MRTF-A(62–104) S98D] in this work.

A Kd (G-actin [2]) of 850 nM was found for {FAM}-PNLPPLSERKNVLQLKLQQRRTREELVSQGIMPPLK[pS]PAAFHE [FAM-MRTF-A(62–104) phosphorylated at S98] in this work.

A Kd (G-actin [1]) of 1050 nM was found for {FAM}-PNLPPLSERKNVLQLKLQQRRTREELVSQGIMPPLKSPAAFHE [FAM-MRTF-A(62–104)] in this work.
